Read-outs that look alike come from different tables or passages of the source.
T1: Cynomolgus monkey IL-17C (cynomolgus monkey, UniProt Q9P0M4 19-197 (human entry), limits assumed, biotinylated in the receptor inhibition assay (ECL biotinylation module))
T1 chain: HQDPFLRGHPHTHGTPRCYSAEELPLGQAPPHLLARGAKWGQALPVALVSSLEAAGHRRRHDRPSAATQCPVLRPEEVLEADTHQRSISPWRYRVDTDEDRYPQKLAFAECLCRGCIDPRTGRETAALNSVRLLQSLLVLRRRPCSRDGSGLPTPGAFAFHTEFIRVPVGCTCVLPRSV

T2: Mouse IL-17C (mouse, UniProt Q8K4C5 17-194, biotinylated in the receptor inhibition assay (ECL biotinylation module))
T2 sequence: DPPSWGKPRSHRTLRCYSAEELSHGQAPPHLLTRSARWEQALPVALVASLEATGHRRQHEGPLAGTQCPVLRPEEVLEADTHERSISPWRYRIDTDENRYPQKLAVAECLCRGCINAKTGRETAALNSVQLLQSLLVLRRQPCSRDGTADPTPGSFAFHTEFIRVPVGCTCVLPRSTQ

T3: Human IL-17C (human, UniProt Q9P0M4 19-197, biotinylated in the receptor inhibition assay (ECL biotinylation module))
T3 sequence: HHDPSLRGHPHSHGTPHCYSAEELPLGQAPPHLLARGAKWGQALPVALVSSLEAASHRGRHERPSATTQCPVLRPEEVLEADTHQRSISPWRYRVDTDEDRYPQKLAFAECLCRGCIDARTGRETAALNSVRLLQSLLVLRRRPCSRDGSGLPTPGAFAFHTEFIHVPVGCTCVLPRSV


Columns and labels:
[1] = target: T1, Cynomolgus monkey IL-17C; experiment: cell-based or functional assay
[2] = target: T2, Mouse IL-17C; experiment: cell-based or functional assay
[3] = target: T3, Human IL-17C; experiment: cell-based or functional assay
[4] = target: T3, Human IL-17C; experiment: MSD receptor inhibition assay, IgG format: IgG pre-incubated with biotinylated human IL-17C, binding to coated mouse IL17RE/Fc
Experimental: (§1) Purified IL-17C specific Fabs or IgGs, respectively were tested for its capacity to inhibit the binding of IL-17C to its specific receptor IL-17RE. Therefore MA6000 384-well plates (Meso Scale Discovery, MSD) were coated with 30 μl of mouse IL17RE/Fc chimeric protein at 75 ng/ml in PBS at 4° C. overnight. The next day a serial antibody dilution (concentrations from 0.001 to 100 nM) were pre-incubated for 30 min at RT with an equal volume of biotinylated human/cynomolgus or mouse IL-17C to determine an IC₅₀ concentration for receptor binding inhibition. After blocking of plates for 1 h with 2.5% BSA in PBST, previously formed antibody-ligand complexes were added for 1 h to coated IL17RE/Fc and receptor binding was detected via Streptavidin-ECL using MSD Sector Imager.
(§2) Results are shown in rows 3 and 4 in Table 2 and Table 3 respectively.

[5] = target: T1, Cynomolgus monkey IL-17C; experiment: MSD receptor inhibition assay, IgG format: IgG pre-incubated with biotinylated cynomolgus IL-17C, binding to coated mouse IL17RE/Fc
Experimental: as §1, §2

[6] = target: T1, Cynomolgus monkey IL-17C; experiment: SET (solution equilibrium titration, ECL based), apparent affinity, bivalent IgG
Description: (§3) Solution equilibrium titration (SET) was basically performed as described in the literature (Friquet et al., (1985) J. Immunol. Meth. 77: 305-19). In order to improve the sensitivity and accuracy of the SET method, it was transferred from classical ELISA to ECL based technology (Haenel et al. (2005) Anal Biochem. 339.1: 182-84).

[7] = target: T2, Mouse IL-17C; experiment: as above
Description: as §3

[8] = target: T3, Human IL-17C; experiment: as above
Description: as §3

[9] = target: T2, Mouse IL-17C; experiment: MSD receptor inhibition assay, IgG format: IgG pre-incubated with biotinylated mouse IL-17C, binding to coated mouse IL17RE/Fc
Experimental: as §1, §2

[10] = target: T3, Human IL-17C; experiment: MSD receptor inhibition assay, Fab format: Fab pre-incubated with biotinylated human IL-17C, binding to coated mouse IL17RE/Fc
Experimental: as §1, §2

[11] = target: T1, Cynomolgus monkey IL-17C; experiment: SET (solution equilibrium titration, ECL based), monovalent affinity, Fab
Description: as §3

[12] = target: T2, Mouse IL-17C; experiment: as above
Description: as §3

[13] = target: T3, Human IL-17C; experiment: as above
Description: as §3

[14] = target: T1, Cynomolgus monkey IL-17C; experiment: MSD receptor inhibition assay, Fab format: Fab pre-incubated with biotinylated cynomolgus IL-17C, binding to coated mouse IL17RE/Fc
Experimental: as §1, §2

[15] = target: T2, Mouse IL-17C; experiment: MSD receptor inhibition assay, Fab format: Fab pre-incubated with biotinylated mouse IL-17C, binding to coated mouse IL17RE/Fc
Experimental: as §1

[16] = target: T1, Cynomolgus monkey IL-17C; experiment: cell-based or functional assay
[17] = target: T2, Mouse IL-17C; experiment: cell-based or functional assay; remark: listed apart in the source
[18] = target: T3, Human IL-17C; experiment: cell-based or functional assay; remark: listed apart in the source
[19] = target: T1, Cynomolgus monkey IL-17C; experiment: MSD receptor inhibition assay, Fab format: Fab pre-incubated with biotinylated cynomolgus IL-17C, binding to coated mouse IL17RE/Fc
Experimental: as §1

Row | IC50 [4] [pM] | IC50 [5] [pM] | EC50 [7] [pM] | EC50 [8] [pM] | IC50 [9] [pM] | IC50 [10] [pM] | Kd [11] [pM] | Kd [12] [pM] | Kd [13] [pM] | IC50 [15] [pM] | Binder | further results
1 | 59 | 44 | 387 | 19 | 55 | – | – | – | – | – | MAB#1 IgG1 (antibody, V domains shown, Human IgG1 with lambda light chain from the Ylanthia library) VH: EVQLLESGGGLVQPGGSLRLSCAASGFTVSDYAMHWVRQAPGKGLEWVSYIGGVGEGTQYAESVKGRFTISRDNSKNTLYLQMNSLRAEDTAVYYCARGFAIRYYGFDYWGQGTLVTVSS VL: SYELTQPPSVSVSPGQTASITCSGDKLGDKYAYWYQQKPGQSPVLVIYQDSKRPSGIPERFSGSNSGNTATLTISGTQAEDEADYYCQVFTFPLVTTVFGGGTKLTVLG | NF-κB reporter assay (IC50) [1]: 12.8 pM; Keratinocyte assay (IC50; CSF3 gene expression in mouse primary keratinocytes) [2]: 112 pM; NF-κB reporter assay (IC50) [2]: 47.6 pM; Keratinocyte assay (IC50; DEFB4A gene expression in primary human keratinocytes stimulated with hIL-17C and TNFα) [3]: 319 pM; NF-κB reporter assay (IC50) [3]: 31.3 pM; EC50 [6]: 257 pM
2 | – | – | – | – | – | 2900 | 22000 | 28000 | 3950 | 6000 | MAB#1 Fab (Fab, V domains shown, Purified monovalent Fab; also called MAB#1 (Fab format)) VH: EVQLLESGGGLVQPGGSLRLSCAASGFTVSDYAMHWVRQAPGKGLEWVSYIGGVGEGTQYAESVKGRFTISRDNSKNTLYLQMNSLRAEDTAVYYCARGFAIRYYGFDYWGQGTLVTVSS VL: SYELTQPPSVSVSPGQTASITCSGDKLGDKYAYWYQQKPGQSPVLVIYQDSKRPSGIPERFSGSNSGNTATLTISGTQAEDEADYYCQVFTFPLVTTVFGGGTKLTVLG | IC50 [14]: 2700 pM
3 | 58 | 57 | 323 | 16 | 48 | – | – | – | – | – | MAB#2 IgG1 (antibody, V domains shown, Human IgG1 with lambda light chain from the Ylanthia library) VH: QVQLVESGGGLVKPGGSLRLSCAASGFTFSDHYISWIRQAPGKGLEWVSYISSSGSTTYYAESVKGRFTISRDNAKNSLYLQMNSLRAEDTAVYYCARQSYYFLPYFDVWGQGTLVTVSS VL: QSALTQPASVSGSPGQSITISCTGTSSDVGSYNLVSWYQQHPGKAPKLMIYEGSKRPSGVSNRFSGSKSGNTASLTISGLQAEDEADYYCASRGSRRVLYVFGGGTKLTVLG | NF-κB reporter assay (IC50) [16]: 12.9 pM; Keratinocyte assay (IC50; CSF3 gene expression in mouse primary keratinocytes) [17]: 51 pM; NF-κB reporter assay (IC50) [17]: 64.8 pM; Keratinocyte assay (IC50; DEFB4A gene expression in primary human keratinocytes stimulated with hIL-17C and TNFα) [18]: 280 pM; NF-κB reporter assay (IC50) [18]: 18.5 pM
4 | – | – | – | – | – | 76 | 63 | 460 | 37 | 150 | MAB#2 Fab (Fab, V domains shown, Purified monovalent Fab; also called MAB#2 (Fab format)) VH: QVQLVESGGGLVKPGGSLRLSCAASGFTFSDHYISWIRQAPGKGLEWVSYISSSGSTTYYAESVKGRFTISRDNAKNSLYLQMNSLRAEDTAVYYCARQSYYFLPYFDVWGQGTLVTVSS VL: QSALTQPASVSGSPGQSITISCTGTSSDVGSYNLVSWYQQHPGKAPKLMIYEGSKRPSGVSNRFSGSKSGNTASLTISGLQAEDEADYYCASRGSRRVLYVFGGGTKLTVLG | IC50 [19]: 50 pM

Source: patent publication US20190048071A1 (MorphoSys, published 2019)
